Measurements as given in patent US20160228570A1 (QUEEN MARY AND WESTFIELD COLLEGE, published 2016).

How the values were obtained:
[1] = target: T1, free radical modified BSA (bovine, UniProt P02769 25-607, modified as CII (OH, HOCl, ONOO or 2M ribose); residues not stated); experiment: ELISA (data not shown)
T1 construct: Written as printed, as one entry

[2] = target: T2, native bovine serum albumin (bovine, UniProt P02769 25-607); experiment: ELISA (data not shown)
T2 construct: Control antigen; also called BSA; native BSA
T2 sequence (P02769 25-607 limits assumed): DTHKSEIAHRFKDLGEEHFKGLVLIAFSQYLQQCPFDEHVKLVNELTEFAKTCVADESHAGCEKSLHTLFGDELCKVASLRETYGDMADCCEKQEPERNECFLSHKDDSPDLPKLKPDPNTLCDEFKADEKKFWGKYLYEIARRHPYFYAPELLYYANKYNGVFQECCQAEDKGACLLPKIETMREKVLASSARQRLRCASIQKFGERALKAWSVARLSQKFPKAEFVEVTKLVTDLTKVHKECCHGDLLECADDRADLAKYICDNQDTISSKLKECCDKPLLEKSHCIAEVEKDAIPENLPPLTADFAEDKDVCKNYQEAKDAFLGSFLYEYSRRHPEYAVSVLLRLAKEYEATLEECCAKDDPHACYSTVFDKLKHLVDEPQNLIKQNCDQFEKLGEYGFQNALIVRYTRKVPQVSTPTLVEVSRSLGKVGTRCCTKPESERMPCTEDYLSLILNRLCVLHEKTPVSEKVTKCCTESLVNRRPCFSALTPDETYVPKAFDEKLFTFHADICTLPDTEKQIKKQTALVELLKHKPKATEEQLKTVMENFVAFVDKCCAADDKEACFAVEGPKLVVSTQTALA

ribose-modified CII = target: T3, ribose-modified CII (bovine, UniProt P02459 201-1214, glycated with 2M ribose, overnight at 37 C; residues not stated); experiment: ELISA, purified scFv on coated antigen
T3 construct: also called Ribose-CII; glycated CII
T3 sequence (P02459 201-1214): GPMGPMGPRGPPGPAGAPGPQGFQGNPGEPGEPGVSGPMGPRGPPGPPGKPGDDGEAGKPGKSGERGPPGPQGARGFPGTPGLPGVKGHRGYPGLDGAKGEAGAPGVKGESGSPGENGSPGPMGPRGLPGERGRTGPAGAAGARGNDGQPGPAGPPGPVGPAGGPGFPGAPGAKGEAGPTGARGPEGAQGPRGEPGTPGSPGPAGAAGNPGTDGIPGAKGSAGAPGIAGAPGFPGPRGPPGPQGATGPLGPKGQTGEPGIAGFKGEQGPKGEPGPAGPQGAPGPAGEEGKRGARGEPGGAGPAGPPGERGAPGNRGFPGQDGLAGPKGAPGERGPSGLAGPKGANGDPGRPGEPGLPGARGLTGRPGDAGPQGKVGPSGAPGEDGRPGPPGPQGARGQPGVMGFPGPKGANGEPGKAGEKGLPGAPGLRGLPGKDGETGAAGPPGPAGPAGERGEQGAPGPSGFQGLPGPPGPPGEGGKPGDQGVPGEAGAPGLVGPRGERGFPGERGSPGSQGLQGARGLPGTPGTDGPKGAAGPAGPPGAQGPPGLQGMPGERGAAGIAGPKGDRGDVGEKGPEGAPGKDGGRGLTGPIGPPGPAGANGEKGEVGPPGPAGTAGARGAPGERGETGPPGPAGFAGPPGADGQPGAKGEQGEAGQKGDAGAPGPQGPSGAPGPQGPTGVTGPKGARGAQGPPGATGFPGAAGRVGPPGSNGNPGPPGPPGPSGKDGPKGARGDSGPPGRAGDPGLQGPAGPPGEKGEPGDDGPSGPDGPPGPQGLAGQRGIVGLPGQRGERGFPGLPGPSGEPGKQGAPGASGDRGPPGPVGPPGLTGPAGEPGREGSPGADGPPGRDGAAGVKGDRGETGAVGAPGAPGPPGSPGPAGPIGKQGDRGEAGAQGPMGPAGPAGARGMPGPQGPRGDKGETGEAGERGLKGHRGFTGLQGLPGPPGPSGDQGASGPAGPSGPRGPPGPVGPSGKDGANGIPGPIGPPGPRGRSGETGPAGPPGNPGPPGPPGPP
Description: (§1) Screening for positive anti-modified CII phage clones was first performed by enzyme-linked immunosorbent assay (ELISA), as previously described (Harrison J. L, 1996). Microtiter plate (Nunc, Paisley, UK) wells were coated with 10 μg/ml native or modified CII and incubated with 100 μl phage suspension for 90 minutes. In addition, native and modified BSA were used as negative control. After removal of the supernatants, the amount of bound phage was determined using peroxidase-labeled anti-M13 antibodies (GE Healthcare: Ltd, Little Chalfont, Buckinghamshire) and developed by using 100 mM 3,3′5,5′ tetramethylbenzidine (TMB) as substrate. The reaction was monitored in an ELISA reader at 450 nm with a reference wavelength of 650 nm using GENios plate reader (TECAN, Theale Court, Reading UK) and Magellan software (TECAN, Theale Court, Reading UK)
(§2) The reactive phage clones obtained from E. coli TG-1 bacteria were used to infect E. coli HB2151 non-suppressor bacterial strain to obtain soluble scFv. […] Binding of purified scFv to modified CII was first analyzed by ELISA as above except that mouse anti-myc tag antibody (Santa Cruz Biotechnology, INC, Wembley, UK) followed by anti-mouse-HRP conjugate (Sigma, Dorset, UK) were used to probe bound scFv.

[3] = target: T4, native non-modified collagen type II (CII) (bovine, UniProt P02459 201-1214); experiment: ELISA, purified scFv on coated antigen
T4 construct: also called native CII
T4 sequence (P02459 201-1214): as above
Description: as §1, §2

HOCl modified CII = target: T5, HOCl modified CII (bovine, UniProt P02459 201-1214, modified with HOCl; residues not stated); experiment: ELISA, purified scFv on coated antigen
T5 construct: also called HOCl-CII; HOCl-Collagen II
T5 sequence (P02459 201-1214): as above
Description: as §1, §2

peroxynitrated CII = target: T6, peroxynitrated CII (bovine, UniProt P02459 201-1214, modified with peroxynitrite (ONOO); residues not stated); experiment: ELISA, purified scFv on coated antigen
T6 construct: also called CII modified with ONOO; peroxynitrite-modified CII
T6 sequence (P02459 201-1214): as above
Description: as §1, §2

Measured: binding result

T1 sequence (P02769 25-607 limits assumed): as the sequence (P02769 25-607 limits assumed) above

B1: scFv 1-11E (scFv, not shown: large carriers; small tags and cut ends)
scFv: EVQLLESGGGLVQPGGSLRLSCAASGFTFSSYAMSWVRQAPGKGLEWVSSIDDSGATTYYADSVKGRFTISRDNSKNTLYLQMNSLRAEDTAVYYCAKNYSSFDYWGQGTLVTVSSGGGGSGGGGSGGGGSTDIQMTQSPSSLSASVGDRVTITCRASQSISSYLNWYQQKPGKAPKLLIYYASSLQSGVPSRFSGSGSGTDFTLTISSLQPEDFATYYCQQAANYPTTFGQGTKVEIK
notes: its first MA and last DI may come from cloning into the fusion; also called clone 1-11E; 1-2F
no binding: [1] | [2]

B2: scFv 6-11D (scFv, not shown: small tags and cut ends)
scFv: EVQLLESGGGLVQPGGSLRLSCAASGFTFSSYAMSWVRQAPGKGLEWVSSIDTGGSYTDYADSVKGRFTISRDNSKNTLYLQMNSLRAEDTAVYYCAKSYTTFDYWGQGTLVTVSSGGGGSGGGGSGGGGSTDIQMTQSPSSLSASVGDRVTITCRASQSISSYLNWYQQKPGKAPKLLIYSASYLQSGVPSRFSGSGSGTDFTLTISSLQPEDFATYYCQQGSNSPTTFGQGTKVEIKR
notes: also called clone 6-11D; 4-5H
no binding: [1] | [2]

B3: scFv 12E (scFv, not shown: small tags and cut ends)
scFv: EVQLLESGGGLVQPGGSLRLSCAASGFTFSSYAMSWVRQAPGKGLEWVSSINDSGTTTYYADSVKGRFTISRDNSKNTLYLQMNSLRAEDTAVYYCAKNYSAFDYWGQGTLVTVSSGGGGSGGGGSGGGGSTDIQMTQSPSSLSASVGDRVTITCRASQSISSYLNWYQQKPGKAPKLLIYAASDLQSGVPSRFSGSGSGTDFTLTISSLQPEDFATYYCQQSDSAPTTFGQGTKVEIKR
notes: Purified soluble scFv; also called clone 12E
no binding: all assays above
